We go through 1 molecule from patent US20100240033A1 (INSTITUT NATIONAL DE LA SANTE ET DE LA RECHERCHE MEDICAL …, published 2010).

As a reminder, the Kd is the free concentration of one partner at which half of the binding sites on the other are occupied at equilibrium, for simple one-to-one binding.

In assay [1] the target is T1, wild-type human prolactin receptor (PRLR), isoform 1 (human, UniProt P16471 25-622).
T1 construct: Full-length receptor stably expressed in HEK 293 cells; Functional assays in HEK 293 and Ba/F3 cells; also called WT PRLR; hPRLR
T1 sequence: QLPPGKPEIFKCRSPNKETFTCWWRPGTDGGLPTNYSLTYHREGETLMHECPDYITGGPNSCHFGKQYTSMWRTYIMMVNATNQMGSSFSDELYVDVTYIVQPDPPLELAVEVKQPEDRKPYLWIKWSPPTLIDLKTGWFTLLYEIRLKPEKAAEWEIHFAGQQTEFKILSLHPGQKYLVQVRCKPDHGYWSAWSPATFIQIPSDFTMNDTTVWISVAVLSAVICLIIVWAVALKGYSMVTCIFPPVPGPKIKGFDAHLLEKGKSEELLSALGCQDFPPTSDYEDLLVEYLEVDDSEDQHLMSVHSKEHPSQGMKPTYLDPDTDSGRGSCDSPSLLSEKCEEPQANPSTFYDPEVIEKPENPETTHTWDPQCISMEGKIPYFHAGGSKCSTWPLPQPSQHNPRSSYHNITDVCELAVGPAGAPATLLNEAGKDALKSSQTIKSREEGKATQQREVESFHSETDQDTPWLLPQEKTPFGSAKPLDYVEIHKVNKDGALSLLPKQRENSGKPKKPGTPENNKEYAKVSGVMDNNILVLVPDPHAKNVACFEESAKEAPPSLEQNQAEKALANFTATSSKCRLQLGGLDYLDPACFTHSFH
The experiment in a line: radioligand competition ([125I]-hPRL vs unlabeled hPRL) on homogenates of stably transfected HEK 293 cells, Scatchard analysis. As for the experimental part: (§1) Binding affinities of mutated PRLR for hPRL were determined using cell homogenates of stably transfected HEK 293, following a procedure previously described (KINET et al., J Biol Chem, 274, 26033-26043, 1999). Briefly, recombinant hPRL, produced in bacteria E. coli using the pT7L expression vector, and purified as described previously (PARIS et al., Biotechnol Appl Biochem, 12, 436-449, 1990), was iodinated using the Iodogen method, and its specific activity was in the range of 4-5 μCi/μg. Binding assays were performed overnight at room temperature using 150-300 μg cell homogenate protein in the presence of 20,000-30,000 cpm [¹²⁵I]-hPRL and increasing concentrations of unlabeled hPRL (competitor). Scatchard analysis was performed to determine the binding affinity of mutated PRLR and the number of PRLR per cell in stable clones or populations.
In general terms: Loss of bound radioactivity is the signal in a displacement assay; it reports binding, not function.

Assay [2] has as its target T2, human prolactin receptor mutant I76V (human, UniProt P16471 25-622).
T2 construct: Full-length mutant receptor stably expressed in HEK 293 cells; also called 176V [sic]; mutant 76
T2 sequence: T1 sequence with I76V
Described as above. As for the experimental part: as §1

In assay [3] the target is T1, wild-type human prolactin receptor …. The experiment in a line: cell-based or functional assay.
Assay [4] deals with T2, human prolactin receptor mutant I76V. The assay is described as follows: cell-based or functional assay.

Changes are numbered by the printed parent chain.

B1: recombinant human prolactin (hPRL) (ligand, UniProt P01236 29-227, looked up)
chain: LPICPGGAARCQVTLRDLFDRAVVLSHYIHNLSSEMFSEFDKRYTHGRGFITKAINSCHTSSLATPEDKEQAQQMNQKDFLSLIVSILRSWNEPLYHLVTEVRGMQEAPEAILSKAVEIEEQTKRLLEGMELIVSQVHPETKENEIYPVWSGLPSLQMADEESRLSAYYNLLHCLRRDSHKIDNYLKLLKCRIIHNNNC
modifications: tracer form iodinated (125I, Iodogen method); unlabeled hPRL used as competitor
notes: Recombinant hPRL from bacteria; also called WT hPRL; [125I]-hPRL
B1: the figures for the Kd in assay [1] and in assay [2] were 640 pM and 440 pM, respectively. The “fold stimulation of LHRE-luciferase activity induced by PRL (stable HEK 293 clones, 1 ug/ml PRL)” value in assay [3] turned out to be 8 fold. In assay [4], the “fold induction of LHRE-luciferase activity by PRL (transient transfection, HEK 293)” value worked out at 5 fold.
